US20150067898

Tested on: ssAPC14.2 TALEN right monomer (Xanthomonas TALE-FokI (artificial)?)
Assay: cell_activity
Conditions: pair with p5; repeat 50%; pig fibroblasts

Question: Which activity does the source give for “ACAGAAATTCTGGGT (double strand) [APC14.2 right half-site]” here?
Answer: 48 % HDR day 3
